# Test results reported in publication PMC10960022, “An ARF gene mutation creates flint kernel architecture in dent maize”.
# T1: ARFTF17 (Zea mays (B73?)) (UniProt D9HNU4)
# T1 sequence: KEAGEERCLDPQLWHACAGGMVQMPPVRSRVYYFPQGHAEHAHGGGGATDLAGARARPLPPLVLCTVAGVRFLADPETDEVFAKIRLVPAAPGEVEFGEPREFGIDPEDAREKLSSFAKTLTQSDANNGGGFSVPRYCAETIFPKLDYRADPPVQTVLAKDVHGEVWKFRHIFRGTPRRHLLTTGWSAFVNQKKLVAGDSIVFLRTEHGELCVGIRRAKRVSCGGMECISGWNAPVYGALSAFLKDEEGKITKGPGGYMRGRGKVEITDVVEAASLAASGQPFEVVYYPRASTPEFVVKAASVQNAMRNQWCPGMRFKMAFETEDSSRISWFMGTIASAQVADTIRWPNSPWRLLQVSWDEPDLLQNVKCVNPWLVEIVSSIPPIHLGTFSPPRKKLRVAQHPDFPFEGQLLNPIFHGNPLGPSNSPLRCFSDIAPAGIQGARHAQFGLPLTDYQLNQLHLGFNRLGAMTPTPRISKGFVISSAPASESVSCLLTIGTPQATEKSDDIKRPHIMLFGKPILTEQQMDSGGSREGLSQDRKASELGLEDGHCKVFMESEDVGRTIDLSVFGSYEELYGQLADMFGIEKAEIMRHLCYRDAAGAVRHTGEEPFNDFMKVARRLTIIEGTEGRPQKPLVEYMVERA
# T2: ARFTF17 (Zea mays, UniProt D9HNU4 2-644)
# T2 sequence: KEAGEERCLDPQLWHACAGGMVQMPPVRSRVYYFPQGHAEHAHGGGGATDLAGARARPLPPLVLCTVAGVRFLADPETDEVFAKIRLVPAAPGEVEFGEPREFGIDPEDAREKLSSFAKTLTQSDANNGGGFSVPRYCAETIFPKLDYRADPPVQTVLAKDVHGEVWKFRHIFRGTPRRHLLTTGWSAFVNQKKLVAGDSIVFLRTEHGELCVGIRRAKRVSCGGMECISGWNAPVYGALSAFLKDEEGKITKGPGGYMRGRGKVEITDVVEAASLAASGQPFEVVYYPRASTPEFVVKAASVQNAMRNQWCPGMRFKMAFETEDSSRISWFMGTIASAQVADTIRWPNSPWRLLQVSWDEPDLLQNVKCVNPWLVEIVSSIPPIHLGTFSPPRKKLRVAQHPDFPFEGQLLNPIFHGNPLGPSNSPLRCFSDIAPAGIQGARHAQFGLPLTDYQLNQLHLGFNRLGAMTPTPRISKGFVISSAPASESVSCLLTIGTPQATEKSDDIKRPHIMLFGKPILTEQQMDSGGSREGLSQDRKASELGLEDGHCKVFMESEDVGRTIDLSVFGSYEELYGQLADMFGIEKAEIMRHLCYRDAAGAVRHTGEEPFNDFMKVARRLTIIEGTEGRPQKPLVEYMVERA
# Legend:
# [1] = biological target: T1, ARFTF17 (Zea mays (B73?)); test: EMSA; conditions: 20 mM Tris-HCl pH 7.9, 40 mM KCl, 2 mM MgCl2, 0.2 mM DTT, 5% glycerol, 0.04 mg/mL BSA, 1 ug salmon sperm DNA in 20 uL, room temperature 30 min; 0.05 pmol …
# [2] = biological target: T2, ARFTF17; test: EMSA; 20 mM Tris-HCl pH 7.9, 40 mM KCl, 2 mM MgCl2, 0.2 mM DTT, 5% glycerol, 0.04 mg/mL BSA, 1 ug salmon sperm DNA in 20 uL, room temperature 30 min; 0.05 pmol probe, 100 ng protein; native 4% PAGE at 4 C; conditions: protein: recombinant; tags: His (pET30a); chain copies: 2; blunt
Molecule,binding [1],binding result [2]
AATGCACAATCAAATAAATACTCAACATGATGCATATTTCTATTTATATATTTTTATAGTAATTGTTTAATCCTTTTGGTTAAATAACATGCTTCGAAATATGCCATACAACAATTTTCAGTTTTGAAGAAAT (double strand) [PIN1-P],no binding,
P3(2x) (dsDNA) DNA 1: AAGGGAGACAACTTGTCTCCCAAAGGGAGACAACTTGTCTCCCAAAGGGAGACAACTTGTCTCCCA DNA 2: TGGGAGACAAGTTGTCTCCCTTTGGGAGACAAGTTGTCTCCCTTTGGGAGACAAGTTGTCTCCCTT,,no binding
